These results are taken from article PMC13147308.

In test [1] the target is SauCas9 WED-PI domain construct, His-tagged (Staphylococcus aureus). The test can be described thus: ITC; AcrIIA13b mutants E31K and E39K with SauCas9 and WED-PI (Fig. S7); buffer not told for this experiment. For orientation: Isothermal titration calorimetry measures the heat released or taken up as one component is titrated into another.
For test [2], the target named is Staphylococcus haemolyticus AcrIIA13b, wild type, with C-terminal 6xHis tag (Staphylococcus haemolyticus). Kind of test: SEC-MALS; Superdex 200 Increase 10/300 GL, 20 mM Tris/HCl pH 8.0, 150 mM NaCl, 20 °C, 0.5 mL/min; SEC profiles and MALS of wild type and mutants; monomer and dimer peaks coexist. In general terms: SEC sorts molecules by how far they enter the pores of the column.

Test [3] deals with Staphylococcus aureus Cas9, full length, His-tagged (Staphylococcus aureus) (UniProt J7RUA5). Kind of test: ITC; PBS pH 7.4, 20 °C; AcrIIA13b (500 μM) injected into the target protein (50 μM) in the cell, 25 injections; single-site model.
For test [4], the target named is SauCas9 PI (PAM-interacting) domain, His-tagged (Staphylococcus aureus). The test is described as above.
Test [5] concerns the target Staphylococcus aureus Cas9, full length, His-tagged (UniProt J7RUA5). Kind of test: SEC co-migration followed by SDS/PAGE band quantification. The following applies: fraction eluted around 12 mL in SEC; n = 3; parent: est. 100; read off a plot.

On to AcrIIA13b E39K mutant (natural protein), for which, in test [1], the Kd was 1310 nM.
“Staphylococcus haemolyticus AcrIIA13b, wild type, with C-terminal 6xHis tag (natural protein)” gave a stoichiometry N in test [2] of 2. Also, the values for the Kd in test [3] and in test [4] were 4470 nM and 970 nM, respectively.
As for “Staphylococcus haemolyticus AcrIIA13b, wild type, with C-terminal 6xHis tag E21K”, the percent of parent in test [5] was 75%.
On the same count and under the same terms, next, “Staphylococcus haemolyticus AcrIIA13b, wild type, with C-terminal 6xHis tag E31K”: 13%; “Staphylococcus haemolyticus AcrIIA13b, wild type, with C-terminal 6xHis tag E39K”: 35%.
Still for that read-out and setting: then “Staphylococcus haemolyticus AcrIIA13b, wild type, with C-terminal 6xHis tag E89W”, with 84%; and “Staphylococcus haemolyticus AcrIIA13b, wild type, with C-terminal 6xHis tag E94W”, with 87%.
On the same count and under the same terms, then “Staphylococcus haemolyticus AcrIIA13b, wild type, with C-terminal 6xHis tag Q25W”, with 46%; and “Staphylococcus haemolyticus AcrIIA13b, wild type, with C-terminal 6xHis tag Q87W”, with 75%.

The term Kd denotes the concentration at which binding is half-saturated. A high value points to lower affinity. By stoichiometry N is commonly meant a count of units in the complex or per binding partner.
